Results as given in patent publication US20240247072A1 (KEYMED BIOSCIENCES, published 2024).

Key:
[1] = molecular target: T1, human CD70, full length, on CHO cells (CHO-human CD70-B07) (human, UniProt P32970 1-193); experiment: flow cytometry, chimeric IgG on CHO-human CD70 cells
T1 construct: whole, on cells; Stably transfected CHO cells; also called CHO-CD70
T1 sequence (looked up): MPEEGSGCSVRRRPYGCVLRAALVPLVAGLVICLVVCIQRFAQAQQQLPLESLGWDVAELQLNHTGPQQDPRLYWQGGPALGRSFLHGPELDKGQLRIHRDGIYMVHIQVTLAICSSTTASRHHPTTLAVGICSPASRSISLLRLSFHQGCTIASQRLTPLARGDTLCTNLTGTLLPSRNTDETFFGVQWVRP
Procedure: (§1) Different cells in logarithmic growth phase were taken, blocked with 3% BSA for 30 minutes, and plated to a 96-well U-plate at 5×10⁴ cells/100 μL. The centrifuge was performed at 1100 rpm for 3 minutes. The supernatant was discarded and the cells were gently tapped to be loosening. 50 μL of gradient diluted antibody was added (antibody concentration: from 30 μg/mL, 3-fold dilution for 5 gradients) per well, and incubated at 4° C. for 1 hour. After incubation, 180 μL of 0.5% BSA was added to each well for washing 3 times. 30 μL/well of secondary antibody AlexaFluro647 anti-human IgG (Jackson Immuno Research, Cat. No: 109-606-170) was added and incubated at 4° C. for 45 minutes. At the end of the incubation, each well was washed 3 times with 180 μL of 0.5% BSA and finally resuspended in 50 μL of PBS for iQue (Intellicyt, USA) assay.

[2] = molecular target: T2, cynomolgus monkey CD70, full length, on CHO cells (CHO-monkey CD70-D01) (cynomolgus monkey, UniProt A0A2K5WTU9 1-190); experiment: flow cytometry, chimeric IgG on CHO-cynomolgus monkey CD70 cells
T2 construct: whole, on cells; Stably transfected CHO cells; also called CHO-cynomolgus monkey CD70
T2 sequence: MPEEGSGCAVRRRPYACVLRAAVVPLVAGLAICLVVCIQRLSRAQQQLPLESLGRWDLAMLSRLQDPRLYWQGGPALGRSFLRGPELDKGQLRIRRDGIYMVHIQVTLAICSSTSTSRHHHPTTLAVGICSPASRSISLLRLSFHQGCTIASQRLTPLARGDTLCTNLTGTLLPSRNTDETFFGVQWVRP
Procedure: as §1

[3] = molecular target: T3, recombinant trimeric protein of human CD70 extracellular region (human CD70 mIgG Fc (knob) / mouse IgG Fc … (human, UniProt P01863 98-330 = IgG part)); experiment: competition ELISA, chimeric IgG titrated, CD27 coated, biotin-CD70, human pair
T3 construct: The ELISA and Octet texts say only 'recombinant CD70 protein' / 'CM352 antigen'; also called recombinant human CD70 protein; recombinant CD70 protein
T3 chain 1: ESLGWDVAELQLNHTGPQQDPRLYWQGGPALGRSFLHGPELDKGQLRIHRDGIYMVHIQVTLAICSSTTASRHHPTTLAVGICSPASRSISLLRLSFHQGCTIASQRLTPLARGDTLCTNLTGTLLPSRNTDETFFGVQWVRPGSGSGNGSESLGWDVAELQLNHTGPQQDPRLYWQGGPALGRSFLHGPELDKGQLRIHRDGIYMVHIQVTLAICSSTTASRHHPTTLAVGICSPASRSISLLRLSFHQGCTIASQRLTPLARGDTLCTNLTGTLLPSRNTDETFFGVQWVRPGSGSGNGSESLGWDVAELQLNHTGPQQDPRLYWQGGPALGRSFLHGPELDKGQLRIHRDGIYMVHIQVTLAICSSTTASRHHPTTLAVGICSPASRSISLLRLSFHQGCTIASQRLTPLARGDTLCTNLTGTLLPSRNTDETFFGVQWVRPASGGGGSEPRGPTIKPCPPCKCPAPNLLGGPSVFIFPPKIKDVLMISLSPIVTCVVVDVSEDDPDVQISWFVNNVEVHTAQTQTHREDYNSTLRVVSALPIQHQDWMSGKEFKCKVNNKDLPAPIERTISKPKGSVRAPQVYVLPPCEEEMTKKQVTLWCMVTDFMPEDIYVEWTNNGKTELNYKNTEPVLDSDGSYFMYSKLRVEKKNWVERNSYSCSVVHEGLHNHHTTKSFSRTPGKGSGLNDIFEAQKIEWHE
T3 chain 2: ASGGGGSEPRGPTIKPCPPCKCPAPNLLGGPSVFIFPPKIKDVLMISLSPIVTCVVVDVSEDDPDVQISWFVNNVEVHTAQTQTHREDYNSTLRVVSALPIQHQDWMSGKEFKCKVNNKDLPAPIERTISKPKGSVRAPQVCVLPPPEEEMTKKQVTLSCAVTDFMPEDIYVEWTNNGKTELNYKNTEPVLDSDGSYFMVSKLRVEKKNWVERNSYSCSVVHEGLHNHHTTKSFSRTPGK
Procedure: (§2) The recombinant CD27 protein was coated at 1 μg/mL in a 96-well microtiter plate and incubated overnight at 4° C. The next day, the plate was washed 3 times with PBS, added with 200 μL of 2% defatted dry milk/PBS, blocked at room temperature for 2 hours, and washed once with PBS. The purified chimeric antibody was divided to 12 concentration gradients starting at 100 nM and diluted in a 1:3 gradient. […] of the antibody was added per well and incubated at room temperature for 30 minutes. […] The plate was washed 3 times with PBST and PBS and dried by spinning. A secondary antibody Streptavidin-coupled horseradish peroxidase SA-HRP (BD bioscience, cat. No: 6222697) was diluted with 0.5% BSA in a ratio of 1:8000. 100 μL of the diluent was added into each well and incubated at room temperature for 30 minutes. The plate was washed 3 times with PBST and PBS and dried by spinning. 100 μl of color development solution (TMB solution, Sigma, Cat. No: T2885) was added into each well and protected from light at 37° C. for reaction. After the substrate developed moderately, 50 μl of H₂SO₄ was added into each well to terminate the reaction. The OD450 nm was determined by using an enzyme-linked detector within 30 minutes, and the data was collected. The results were calculated by using Graph Pad Prism 5 software.

[4] = molecular target: T4, recombinant cynomolgus monkey CD70 protein (cynomolgus monkey, UniProt A0A2K5WTU9 39-190); experiment: competition ELISA, chimeric IgG titrated, CD27 coated, biotin-CD70, cynomolgus pair
T4 construct: it stands only in column heads ('Monkey', 'Cynomolgus Monkey CD70/CD27') and in result sentences; also called Monkey (ELISA)
T4 sequence: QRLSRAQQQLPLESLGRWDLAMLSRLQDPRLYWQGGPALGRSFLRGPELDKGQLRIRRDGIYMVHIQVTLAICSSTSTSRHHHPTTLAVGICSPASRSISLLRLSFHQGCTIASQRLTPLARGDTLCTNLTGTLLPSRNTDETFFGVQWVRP
Procedure: as §2

[5] = molecular target: T1, human CD70, full length, on CHO cells …; experiment: FACS (iQue) on CHO-human CD70 stably transfected cells, Alexa Fluor 647 anti-human IgG secondary antibody
Procedure: (§3) The supernatant was discarded and the cells were gently tapped to be loosening. 50 μL of gradient diluted antibodies were added (antibody concentration: from 30 μg/mL, 3-fold dilution for 8 gradients) per well, and incubated at 4° C. for 1 hour. After incubation, 200 μL of 0.5% BSA was added to each well for washing 3 times. 50 μL/well of secondary antibody Alexa Fluro647 anti-human IgG (Jackson ImmunoResearch, Cat. No: 109-606-170) was added and incubated at 4° C. for 45 minutes. At the end of the incubation, each well was washed 3 times with 180 μL of 0.5% BSA and finally resuspended in 50 μL of PBS for iQue (Intellicyt) assay.

[6] = molecular target: T2, cynomolgus monkey CD70, full length, on …; experiment: FACS (iQue) on CHO-cynomolgus monkey CD70 stably transfected cells, Alexa Fluor 647 anti-human IgG secondary antibody
Procedure: as §3

B1: 39H5 chimeric antibody (antibody, V domains shown)
VH: EIQLVQSGPELKKPGETVKISCKASGYTFTNYGMNWVKQAPGQGLKWMGWINTYTGEPTYADDFTGRFAFSLETSASTAYLQINNLKNEDMAAYFCAREEDYRYVFNYWGQGTTLTVSS
VL: DIQMIQSTSSLSASLGNRVTISCRASQDISNYLNWYQQKPDGTVKLLIYDTSRLHAGVPSRFSGSGSGTDYSLTISNLEQEDIATYFCQQGVTLPLTFGAGTKLEIK
Q: What does the source list for B1?
A: EC50 [1]: 10.2 nM; EC50 [2]: 15.1 nM; IC50 [3]: 0.06 nM; IC50 [4]: 0.08 nM; EC50 (read off the curve) [5]: ~3 nM; EC50 (read off the curve) [6]: ~3 nM
